Results on one molecule are retold here after patent US20250136688A1 (Janssen / Centocor, published 2025).

Test [1] deals with T1, ectonucleotide pyrophosphatase/phosphodiesterase family member 3 (ENPP3) (human, UniProt O14638 1-875).
T1 sequence (looked up): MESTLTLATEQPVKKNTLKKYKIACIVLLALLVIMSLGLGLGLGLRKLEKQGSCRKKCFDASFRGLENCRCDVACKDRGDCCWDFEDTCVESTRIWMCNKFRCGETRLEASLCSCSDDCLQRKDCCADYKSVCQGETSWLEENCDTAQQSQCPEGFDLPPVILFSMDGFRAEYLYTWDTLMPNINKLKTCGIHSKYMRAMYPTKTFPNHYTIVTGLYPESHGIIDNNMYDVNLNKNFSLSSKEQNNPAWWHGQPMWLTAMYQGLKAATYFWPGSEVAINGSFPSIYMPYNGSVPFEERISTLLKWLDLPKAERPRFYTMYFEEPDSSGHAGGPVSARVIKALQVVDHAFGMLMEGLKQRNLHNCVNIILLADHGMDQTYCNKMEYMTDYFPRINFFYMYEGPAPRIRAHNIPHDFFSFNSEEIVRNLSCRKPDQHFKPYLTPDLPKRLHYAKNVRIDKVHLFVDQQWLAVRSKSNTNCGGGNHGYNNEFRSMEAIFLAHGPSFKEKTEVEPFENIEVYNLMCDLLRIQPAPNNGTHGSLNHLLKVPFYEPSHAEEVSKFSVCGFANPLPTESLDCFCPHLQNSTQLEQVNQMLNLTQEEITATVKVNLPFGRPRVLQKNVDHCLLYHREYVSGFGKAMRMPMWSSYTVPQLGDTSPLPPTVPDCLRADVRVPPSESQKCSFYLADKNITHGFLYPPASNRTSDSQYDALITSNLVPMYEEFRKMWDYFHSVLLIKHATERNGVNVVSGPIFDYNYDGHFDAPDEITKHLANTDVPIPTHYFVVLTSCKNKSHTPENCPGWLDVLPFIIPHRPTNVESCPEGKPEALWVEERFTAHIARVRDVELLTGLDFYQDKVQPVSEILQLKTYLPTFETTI
In words: cell-based or functional assay.

In test [2] the target is T1, ectonucleotide …. In words: flow cytometry on A704 cells. In general terms: Flow cytometry measures light scatter and fluorescence of single cells or particles in a stream.

Broadly, the EC50 is the concentration needed to bring the measured effect to its halfway point. Low values mean greater potency, high ones weaker potency.

B1: NPP3B815 (NPP3B56×CD3B2030-N106A-spFv) (bispecific antibody, human IgG1, kappa, L234A L235A)
chain: EIVLTQSPATLSASPGERVTLSCSASSSVSYMNWYQQKPGCAPRRWIYDSSKLASGVPARFSGSGSGRDYTLTISSLEPEDFAVYYCQQWSRNPPTFGGGTKVEIKGGGSGGSGGCPPCGGSGGQVQLVQSGAEVKKPGSSVKVSCKASGYTFTRSTMHWVKQAPGQGLEWIGYINPSSAYTNYNQKFQGRVTLTADKSTSTAYMELSSLRSEDTAVYYCASPQVHYDYAGFPYWGCGTLVTVSSEPKSSDKTHTCPPCPAPEAAGGPSVFLFPPKPKDTLMISRTPEVTCVVVSVSHEDPEVKFNWYVDGVEVHNAKTKPREEQYNSTYRVVSVLTVLHQDWLNGKEYKCKVSNKALPAPIEKTISKAKGQPREPQVYTLPPSREEMTKNQVSLWCLVKGFYPSDIAVEWESNGQPENNYKTTPPVLDSDGSFFLYSKLTVDKSRWQQGNVFSCSVMHEALHNHYTQKSLSLSPGK
heavy: EVQLVESGGGRVKPGGSLRLSCAASGFTFSDYSMNWVRQAPGKGLEWVSSISSISSYVKYADSVKGRFTMSRDNAKNSLFLQMNSLRDEDMAVYYCARGHYFDYWGQGTLVTVSSASTKGPSVFPLAPSSKSTSGGTAALGCLVKDYFPEPVTVSWNSGALTSGVHTFPAVLQSSGLYSLSSVVTVPSSSLGTQTYICNVNHKPSNTKVDKKVEPKSCDKTHTCPPCPAPEAAGGPSVFLFPPKPKDTLMISRTPEVTCVVVSVSHEDPEVKFNWYVDGVEVHNAKTKPREEQYNSTYRVVSVLTVLHQDWLNGKEYKCKVSNKALPAPIEKTISKAKGQPREPQVYTLPPSREEMTKNQVSLSCAVKGFYPSDIAVEWESNGQPENNYKTTPPVLDSDGSFFLVSKLTVDKSRWQQGNVFSCSVMHEALHNRFTQKSLSLSPGK
light: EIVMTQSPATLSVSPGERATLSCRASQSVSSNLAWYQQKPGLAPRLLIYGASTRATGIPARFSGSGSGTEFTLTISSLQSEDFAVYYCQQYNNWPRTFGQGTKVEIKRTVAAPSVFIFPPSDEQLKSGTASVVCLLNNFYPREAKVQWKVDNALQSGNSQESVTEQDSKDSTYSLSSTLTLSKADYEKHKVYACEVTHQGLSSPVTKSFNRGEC
notes: Heavy Chain 1 = anti-CD3 spFv-Fc (knob); Heavy Chain 2 and Light Chain = anti-ENPP3 Fab arm NPP3B56 (hole); IgG1 with L234A, L235A, D265S; also called ENPP3×CD3
Turning to B1, in test [1], the “T-cell activation EC50, A704, donor 110040278, E:T 3:1” value was found to be 0.008 nM; the “T-cell activation EC50, A704, donor 110042496, E:T 3:1” value worked out at 0.017 nM; the “T-cell activation EC50, A704, donor 110042593, E:T 3:1” value amounted to 0.013 nM; the “T-cell activation EC50, A704, donor 110044049, E:T 3:1” value was 0.008 nM. In test [1], the “T-cell activation EC50, A704, donor 110048457, E:T 3:1” value came to 0.01 nM; the “T-cell activation EC50, A704, donor 888668965, E:T 3:1” value was 0.008 nM; the “T-cell activation EC50, VMRCRCW, donor 110040278, E:T 3:1” value worked out at 0.007 nM; the “T-cell activation EC50, VMRCRCW, donor 110042496, E:T 3:1” value was 0.015 nM. Also, in test [1], the “T-cell activation EC50, VMRCRCW, donor 110042593, E:T 3:1” value is 0.017 nM; the “T-cell activation EC50, VMRCRCW, donor 110044049, E:T 3:1” value worked out at 0.009 nM; the “T-cell activation EC50, VMRCRCW, donor 110048457, E:T 3:1” value was determined as 0.009 nM; the “T-cell activation EC50, VMRCRCW, donor 888668965, E:T 3:1” value was determined as 0.016 nM. This molecule also showed an EC50 in test [2] of 1.01 nM.
